Measurements as given in publication PMC5776806.

Target: extracellular soluble part of EGFR (sEGFR) (UniProt P00533)
Assay: SPR

EGF (ligand)
Kd: 60 nM
